Laboratory results taken from patent US10077319B2, “Anti-PCSK9-GLP-1 fusions and methods for use” (MedImmune, LLC, priority 2014, dated 2018).
Numbering of substitutions follows the chain as printed. Names and notes keep the numbering of the source.

B1: PC9#2_GLP-1_VL: GLP-1 analogue SEQ ID NO:28 fused via linker SEQ ID NO:4 to light chain of PC9#2 (SEQ ID NO: 43) (protein)
chain: HGEGTFTSDVSSYLEEQAAKEFIAWLVKGGGGGGGSGGGGSGGGGSADIQMTQSPSSLSASVGDRVTITCKASQDVHTAVAWYQQKPGKAPKLLIYHASYRYTGVPSRFSGSGSGTDFTFTISSLQPEDIATYYCQQRYSLWRTFGQGTKLEIKR
modifications: heavy chain not cited
B2: HS9_DSB7_I23S: HS9_DSB7 with peptide point mutation I23S; SEQ ID NO: 458 (protein)
chain: HGEGTFTSDLSKQMEEECVRLFSEWLKNGGPSSGAPPPGCGGGGGSGGGGSGGGGSADIQMTQSPSSLSASVGDRVTITCQASQDVKTAVAWYQQKPGKAPKLLIYSASYRYTGVPSRFSGSGSGTDFTFTISSLQPEDIATYYCQQRYSLWRTFGQGTKLEIK
B3: HS9_DSB7_I23T: HS9_DSB7 with peptide point mutation I23T; SEQ ID NO: 457 (protein)
chain: B2 chain with S23T
B4: HS9_DSB7_L26E: HS9_DSB7 with peptide point mutation L26E; SEQ ID NO: 470 (protein)
chain: B2 chain with S23I, L26E
B5: HS9_DSB7_L26D: HS9_DSB7 with peptide point mutation L26D; SEQ ID NO: 471 (protein)
chain: B2 chain with S23I, L26D
B6: HS9_DSB7_L26S: HS9_DSB7 with peptide point mutation L26S; SEQ ID NO: 462 (protein)
chain: B2 chain with S23I, L26S
B7: HS9_DSB7_G2Y: HS9_DSB7 with peptide point mutation G2Y; SEQ ID NO: 444 (protein)
chain: B2 chain with G2Y, S23I
B8: HS9_DSB7_I23G: HS9_DSB7 with peptide point mutation I23G; SEQ ID NO: 459 (protein)
chain: B2 chain with S23G
B9: HS9_DSB7_G2T: HS9_DSB7 with peptide point mutation G2T; SEQ ID NO: 446 (protein)
chain: B2 chain with G2T, S23I
B10: HS9_DSB7_L26H: HS9_DSB7 with peptide point mutation L26H; SEQ ID NO: 468 (protein)
chain: B2 chain with S23I, L26H
B11: HS9_DSB7_I23A: HS9_DSB7 with peptide point mutation I23A; SEQ ID NO: 460 (protein)
chain: B2 chain with S23A
B12: HS9_DSB7_L26Q: HS9_DSB7 with peptide point mutation L26Q; SEQ ID NO: 465 (protein)
chain: B2 chain with S23I, L26Q
B13: HS9_DSB7_V19T: HS9_DSB7 with peptide point mutation V19T; SEQ ID NO: 453 (protein)
chain: B2 chain with V19T, S23I
B14: HS9_DSB7_L26N: HS9_DSB7 with peptide point mutation L26N; SEQ ID NO: 464 (protein)
chain: B2 chain with S23I, L26N
B15: HS9_DSB7_L26G: HS9_DSB7 with peptide point mutation L26G; SEQ ID NO: 469 (protein)
chain: B2 chain with S23I, L26G
B16: HS9_DSB7_G2F: HS9_DSB7 with peptide point mutation G2F; SEQ ID NO: 450 (protein)
chain: B2 chain with G2F, S23I
B17: HS9_DSB7_V19S: HS9_DSB7 with peptide point mutation V19S; SEQ ID NO: 454 (protein)
chain: B2 chain with V19S, S23I
B18: HS9_DSB7_L26T: HS9_DSB7 with peptide point mutation L26T; SEQ ID NO: 461 (protein)
chain: B2 chain with S23I, L26T
B19: HS9_DSB7_L26P: HS9_DSB7 with peptide point mutation L26P; SEQ ID NO: 463 (protein)
chain: B2 chain with S23I, L26P
B20: HS9_DSB7_V19G: HS9_DSB7 with peptide point mutation V19G; SEQ ID NO: 455 (protein)
chain: B2 chain with V19G, S23I
B21: HS9_DSB7_G2I: HS9_DSB7 with peptide point mutation G2I; SEQ ID NO: 449 (protein)
chain: B2 chain with G2I, S23I
B22: HS9_DSB7_L26M: HS9_DSB7 with peptide point mutation L26M; SEQ ID NO: 466 (protein)
chain: B2 chain with S23I, L26M
B23: HS9_DSB7_G2N: HS9_DSB7 with peptide point mutation G2N; SEQ ID NO: 448 (protein)
chain: B2 chain with G2N, S23I
B24: HS9_DSB7_G2Q: HS9_DSB7 with peptide point mutation G2Q; SEQ ID NO: 447 (protein)
chain: B2 chain with G2Q, S23I

The molecules below were run against human GLP-1 receptor (Homo sapiens, UniProt P43220) (assay: cAMP production assay in CHO cells expressing human GLP-1 receptor). Details: Table 13; EC50 relative to GLP1-Fc.
human GLP-1 receptor, sequence (P43220 24-463): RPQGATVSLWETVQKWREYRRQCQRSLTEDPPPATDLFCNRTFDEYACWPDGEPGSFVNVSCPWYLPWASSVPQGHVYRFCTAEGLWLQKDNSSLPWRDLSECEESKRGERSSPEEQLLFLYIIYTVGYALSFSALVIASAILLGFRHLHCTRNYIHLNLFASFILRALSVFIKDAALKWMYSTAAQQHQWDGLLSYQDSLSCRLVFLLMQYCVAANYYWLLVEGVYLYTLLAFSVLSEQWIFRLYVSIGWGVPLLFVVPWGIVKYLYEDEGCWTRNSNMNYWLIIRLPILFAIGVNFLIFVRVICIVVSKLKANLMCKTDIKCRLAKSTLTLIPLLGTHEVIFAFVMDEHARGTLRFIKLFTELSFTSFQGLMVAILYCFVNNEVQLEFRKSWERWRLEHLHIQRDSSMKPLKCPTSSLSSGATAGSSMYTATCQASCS
Format: cell-based
Protocol: Low protein binding 384-well plates (Greiner) were used to perform eleven 1 in 4 serial dilutions of test compound that were made in assay medium (0.1% bovine serum albumin in Hanks Balanced Salt Solution (GIBCO or Sigma), containing 0.5 mM IBMX (Sigma)). All sample dilutions were made in duplicate. […] Cells were then re-suspended in assay buffer at the optimized concentration of 1×10^5 cells/mL and dispensed at 5 uL per well to black shallow-well u-bottom 384-well plates (Corning). 5 μL of test compound was transferred from the dilution plate to the cell plate and incubated at room temperature for 30 minutes. cAMP levels were measured the cAMP dynamic 2 HTRF kit (Cisbio), following the two step protocol as per manufacturer's recommendations. Briefly, anti-cAMP cryptate (donor fluorophore) and cAMP-d2 (acceptor fluorophore) were made up separately by diluting each 1/20 in conjugate & lysis buffer provided in the kit. 5 uL of anti-cAMP cryptate was added to all wells of the assay plate and 5 uL of cAMP-d2 added to all wells except non-specific binding wells, to which only conjugate and lysis buffer was added. […] Data was transformed to % Delta F as described in manufacturer's guidelines and analyzed by unconstrained 4-parameter logistic fit of data, curve mid-point to determine EC50.
With B1 the x change was 2.4.

Same assay, conditions: Table 18
B2 was tested, and the “Potency at huGLP-1R in cAMP assay (M)” value was “Inactive”.
B3 was tested, and the “Potency at huGLP-1R in cAMP assay (M)” value was “Inactive”.
With B4 the “Potency at huGLP-1R in cAMP assay (M)” value was “Inactive”.
With B5 the “Potency at huGLP-1R in cAMP assay (M)” value was “Inactive”.
For B6, the “Potency at huGLP-1R in cAMP assay (M)” value was “Inactive”.

Same assay, conditions: Table 18; maximum activation compared to GLP-1
B7 was tested, and the “% Max Effect” value was 10%.
In the case of B8, the “% Max Effect” value is reported as 82%.
In the case of B2, the “% Max Effect” value is reported as “Inactive”.
B9 was tested, and the “% Max Effect” value was 73%.
With B10 the “% Max Effect” value was 87%.
B11 was tested, and the “% Max Effect” value was 67%.
In the case of B3, the “% Max Effect” value is reported as “Inactive”.
For B12, the “% Max Effect” value was 34%.
B13 was tested, and the “% Max Effect” value was 95%.
B14 was tested, and the “% Max Effect” value was 44%.
For B15, the “% Max Effect” value was 81%.
With B4 the “% Max Effect” value was “Inactive”.
For B16, the “% Max Effect” value was 69%.
B17 was tested, and the “% Max Effect” value was 94%.
B18 was tested, and the “% Max Effect” value was 87%.
In the case of B19, the “% Max Effect” value is reported as 60%.
In the case of B20, the “% Max Effect” value is reported as 93%.
For B21, the “% Max Effect” value was 87%.
With B5 the “% Max Effect” value was “Inactive”.
In the case of B6, the “% Max Effect” value is reported as “Inactive”.
B22 was tested, and the “% Max Effect” value was 90%.
For B23, the “% Max Effect” value was 31%.
B24 was tested, and the “% Max Effect” value was 86%.
